The values that follow come from PMC7240051.

The target of this assay is BnaA10.ABF2-cYFP (Brassica napus).

“BnaA6.RGA-nYFP (full length) (natural protein)”: the dual-luciferase assay in tobacco leaves: activity of pBnaC9.RAB18-LUC with BnaA6.RGA expressed together with BnaA10.ABF2, against the reporter only (BnaA10.ABF2 alone: 3.7 times) worked out at 6.5 times.

In turn, “BnaC7.RGA-nYFP (full length) (natural protein)” returned a dual-luciferase assay in tobacco leaves: activity of pBnaC9.RAB18-LUC with BnaC7.RGA expressed together with BnaA10.ABF2, against the reporter only (BnaA10.ABF2 alone: 3.7 times) of 11.8 times.
